Read-outs that look alike come from different tables or passages of the source.
How the values were obtained:
Assay in all cases: cross-linking
MBP-Z(6His) [1] = target: MBP-Z(6His)
MBP-Z(6His) [2] = target: MBP-Z(6His); remark: listed apart in the source
MBP-Z(6Tyr) [3] = target: MBP-Z(6Tyr)
MBP-Z(6His) [4] = target: MBP-Z(6His); remark: listed apart in the source
MBP-Z(6Tyr) [5] = target: MBP-Z(6Tyr); remark: listed apart in the source
MBP-Z(6Tyr) [6] = target: MBP-Z(6Tyr); remark: listed apart in the source
MBP-Z(6His) [7] = target: MBP-Z(6His); remark: listed apart in the source
MBP-Z(6Tyr) [8] = target: MBP-Z(6Tyr); remark: listed apart in the source
MBP-Z(6His) [9] = target: MBP-Z(6His); remark: listed apart in the source
MBP-Z(6Tyr) [10] = target: MBP-Z(6Tyr); remark: listed apart in the source

| Substance | cross-linking efficiency (day 0) (MBP-Z(6His) [1]) [%] | cross-linking efficiency (day 1) (MBP-Z(6His) [1]) [%] | cross-linking efficiency (day 3) (MBP-Z(6His) [1]) [%] | cross-linking efficiency (day 5) (MBP-Z(6His) [1]) [%] | cross-linking efficiency (MBP-Z(6His) [2]) [%] | cross-linking efficiency (MBP-Z(6Tyr) [3]) [%] | cross-linking efficiency (MBP-Z(6His) [4]) [%] | cross-linking efficiency (MBP-Z(6Tyr) [5]) [%] | cross-linking efficiency (MBP-Z(6His) [1]) [%] | cross-linking efficiency (1 mM Na2SiO3) (MBP-Z(6His) [1]) [%] | cross-linking efficiency (no Na2SiO3) (MBP-Z(6His) [1]) [%] | cross-linking efficiency (MBP-Z(6Tyr) [6]) [%] | cross-linking efficiency (1 mM Na2SiO3) (MBP-Z(6Tyr) [6]) [%] | cross-linking efficiency (no Na2SiO3) (MBP-Z(6Tyr) [6]) [%] | cross-linking efficiency (MBP-Z(6His) [7]) [%] | cross-linking efficiency (MBP-Z(6Tyr) [8]) [%] | cross-linking efficiency (MBP-Z(6His) [9]) [%] | cross-linking efficiency (MBP-Z(6Tyr) [10]) [%] |
| --- | --- | --- | --- | --- | --- | --- | --- | --- | --- | --- | --- | --- | --- | --- | --- | --- | --- | --- |
| Zspa affibody with FSY at site 36, Afb(36FSY) (designed binder) | 60.2 | 47.7 | 27.5 | 17.9 |  |  |  |  |  |  |  |  |  |  |  |  |  |  |
| Zspa affibody with PFY at site 36, Afb(36PFY) (designed binder) |  |  |  |  | 37.4 | 26.8 | 21.4 | 5.3 | 5 | 18.8 | 36.9 | 27.5 | 45.7 | 24.7 | 35.3 | 33.7 | 21.3 | 44.5 |

From paper PMC11225796
